Series [1] concerns the target T1, Desmoglein, Q02413.
T1 chain: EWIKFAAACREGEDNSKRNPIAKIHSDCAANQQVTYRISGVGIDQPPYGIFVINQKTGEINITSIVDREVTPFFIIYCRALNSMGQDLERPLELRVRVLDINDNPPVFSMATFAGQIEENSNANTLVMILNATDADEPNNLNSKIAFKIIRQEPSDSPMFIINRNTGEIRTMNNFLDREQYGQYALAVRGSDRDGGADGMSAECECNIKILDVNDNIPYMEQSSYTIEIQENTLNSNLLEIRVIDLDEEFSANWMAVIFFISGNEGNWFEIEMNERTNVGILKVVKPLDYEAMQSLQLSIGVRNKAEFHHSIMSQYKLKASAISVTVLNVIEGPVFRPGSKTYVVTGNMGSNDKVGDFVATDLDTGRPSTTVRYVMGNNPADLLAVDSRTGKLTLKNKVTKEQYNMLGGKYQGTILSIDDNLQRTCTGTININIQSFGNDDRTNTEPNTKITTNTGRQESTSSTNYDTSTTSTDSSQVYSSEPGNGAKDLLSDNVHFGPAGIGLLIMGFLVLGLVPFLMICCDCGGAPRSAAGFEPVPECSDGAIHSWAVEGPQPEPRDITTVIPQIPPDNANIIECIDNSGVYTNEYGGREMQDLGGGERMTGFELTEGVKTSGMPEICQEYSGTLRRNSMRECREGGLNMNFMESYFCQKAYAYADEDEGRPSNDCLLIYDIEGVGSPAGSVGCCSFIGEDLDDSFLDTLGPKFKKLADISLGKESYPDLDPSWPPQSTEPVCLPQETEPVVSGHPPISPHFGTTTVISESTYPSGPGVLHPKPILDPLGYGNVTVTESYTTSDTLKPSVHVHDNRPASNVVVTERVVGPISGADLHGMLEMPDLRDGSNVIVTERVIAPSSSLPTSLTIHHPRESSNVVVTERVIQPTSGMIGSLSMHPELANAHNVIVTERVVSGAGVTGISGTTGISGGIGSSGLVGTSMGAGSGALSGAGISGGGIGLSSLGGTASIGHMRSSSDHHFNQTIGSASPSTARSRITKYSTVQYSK

In series [2] the target is Envoplakin, Q92817.
Series [3] addresses T2, Plakoglobin, P14923.
T2 chain: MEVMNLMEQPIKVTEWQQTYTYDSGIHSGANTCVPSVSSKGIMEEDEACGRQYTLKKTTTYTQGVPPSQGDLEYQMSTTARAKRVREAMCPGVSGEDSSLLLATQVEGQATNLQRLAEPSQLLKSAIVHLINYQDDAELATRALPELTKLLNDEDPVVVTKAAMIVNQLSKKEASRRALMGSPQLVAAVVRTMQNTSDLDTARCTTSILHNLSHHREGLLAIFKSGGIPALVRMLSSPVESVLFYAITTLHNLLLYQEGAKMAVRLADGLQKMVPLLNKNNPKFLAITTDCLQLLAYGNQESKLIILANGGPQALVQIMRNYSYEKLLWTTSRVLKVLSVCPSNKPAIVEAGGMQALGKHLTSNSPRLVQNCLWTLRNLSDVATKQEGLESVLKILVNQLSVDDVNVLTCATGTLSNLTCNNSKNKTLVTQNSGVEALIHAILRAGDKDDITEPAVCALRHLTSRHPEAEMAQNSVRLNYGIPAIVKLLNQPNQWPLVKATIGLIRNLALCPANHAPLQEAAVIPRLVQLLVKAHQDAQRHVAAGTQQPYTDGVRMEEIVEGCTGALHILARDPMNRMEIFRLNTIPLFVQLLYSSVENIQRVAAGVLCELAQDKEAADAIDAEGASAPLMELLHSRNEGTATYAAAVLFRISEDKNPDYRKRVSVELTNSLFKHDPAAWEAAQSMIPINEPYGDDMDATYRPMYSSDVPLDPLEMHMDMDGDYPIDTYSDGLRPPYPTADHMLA

In series [4] the target is Desmoplakin, P15924.
Series [5] deals with T3, Corneodesmosin, Q15517.
T3 chain: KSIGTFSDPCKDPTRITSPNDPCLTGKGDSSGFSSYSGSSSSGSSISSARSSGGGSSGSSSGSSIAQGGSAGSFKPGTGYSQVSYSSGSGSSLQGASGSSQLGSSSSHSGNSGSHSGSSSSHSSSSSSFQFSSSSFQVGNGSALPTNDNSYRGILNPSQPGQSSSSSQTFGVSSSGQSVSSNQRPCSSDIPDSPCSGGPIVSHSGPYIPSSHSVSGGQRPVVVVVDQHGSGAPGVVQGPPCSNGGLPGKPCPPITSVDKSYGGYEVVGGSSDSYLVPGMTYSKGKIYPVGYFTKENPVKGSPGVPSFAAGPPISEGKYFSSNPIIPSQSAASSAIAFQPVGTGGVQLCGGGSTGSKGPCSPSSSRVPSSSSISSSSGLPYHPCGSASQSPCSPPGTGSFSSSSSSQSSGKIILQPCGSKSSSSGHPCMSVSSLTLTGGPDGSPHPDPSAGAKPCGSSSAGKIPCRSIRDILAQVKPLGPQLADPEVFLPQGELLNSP

In series [6] the target is T4, Desmocollin 1, Q08554.
T4 chain: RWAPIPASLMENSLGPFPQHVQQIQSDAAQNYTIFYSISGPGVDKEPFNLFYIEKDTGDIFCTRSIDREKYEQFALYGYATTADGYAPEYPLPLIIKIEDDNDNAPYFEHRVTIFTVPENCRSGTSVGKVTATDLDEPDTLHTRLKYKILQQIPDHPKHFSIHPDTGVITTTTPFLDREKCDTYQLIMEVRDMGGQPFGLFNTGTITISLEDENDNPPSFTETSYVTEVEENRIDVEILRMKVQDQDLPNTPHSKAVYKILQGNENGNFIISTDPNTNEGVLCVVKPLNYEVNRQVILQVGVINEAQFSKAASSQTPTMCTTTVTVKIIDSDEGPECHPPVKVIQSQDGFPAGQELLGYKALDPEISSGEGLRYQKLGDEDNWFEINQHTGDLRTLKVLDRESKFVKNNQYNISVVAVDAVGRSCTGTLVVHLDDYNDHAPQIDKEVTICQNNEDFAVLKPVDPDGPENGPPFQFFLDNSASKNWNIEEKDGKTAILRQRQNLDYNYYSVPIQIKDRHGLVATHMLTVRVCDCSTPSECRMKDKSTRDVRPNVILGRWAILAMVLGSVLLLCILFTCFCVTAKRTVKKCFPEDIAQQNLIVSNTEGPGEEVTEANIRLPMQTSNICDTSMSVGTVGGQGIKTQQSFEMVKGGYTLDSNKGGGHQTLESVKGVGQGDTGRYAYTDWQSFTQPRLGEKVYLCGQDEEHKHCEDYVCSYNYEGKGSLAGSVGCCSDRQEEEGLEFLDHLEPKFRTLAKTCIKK

The source of these data is patent publication US20080292615.

Chain of Envoplakin, Q92817 (Q92817 whole entry): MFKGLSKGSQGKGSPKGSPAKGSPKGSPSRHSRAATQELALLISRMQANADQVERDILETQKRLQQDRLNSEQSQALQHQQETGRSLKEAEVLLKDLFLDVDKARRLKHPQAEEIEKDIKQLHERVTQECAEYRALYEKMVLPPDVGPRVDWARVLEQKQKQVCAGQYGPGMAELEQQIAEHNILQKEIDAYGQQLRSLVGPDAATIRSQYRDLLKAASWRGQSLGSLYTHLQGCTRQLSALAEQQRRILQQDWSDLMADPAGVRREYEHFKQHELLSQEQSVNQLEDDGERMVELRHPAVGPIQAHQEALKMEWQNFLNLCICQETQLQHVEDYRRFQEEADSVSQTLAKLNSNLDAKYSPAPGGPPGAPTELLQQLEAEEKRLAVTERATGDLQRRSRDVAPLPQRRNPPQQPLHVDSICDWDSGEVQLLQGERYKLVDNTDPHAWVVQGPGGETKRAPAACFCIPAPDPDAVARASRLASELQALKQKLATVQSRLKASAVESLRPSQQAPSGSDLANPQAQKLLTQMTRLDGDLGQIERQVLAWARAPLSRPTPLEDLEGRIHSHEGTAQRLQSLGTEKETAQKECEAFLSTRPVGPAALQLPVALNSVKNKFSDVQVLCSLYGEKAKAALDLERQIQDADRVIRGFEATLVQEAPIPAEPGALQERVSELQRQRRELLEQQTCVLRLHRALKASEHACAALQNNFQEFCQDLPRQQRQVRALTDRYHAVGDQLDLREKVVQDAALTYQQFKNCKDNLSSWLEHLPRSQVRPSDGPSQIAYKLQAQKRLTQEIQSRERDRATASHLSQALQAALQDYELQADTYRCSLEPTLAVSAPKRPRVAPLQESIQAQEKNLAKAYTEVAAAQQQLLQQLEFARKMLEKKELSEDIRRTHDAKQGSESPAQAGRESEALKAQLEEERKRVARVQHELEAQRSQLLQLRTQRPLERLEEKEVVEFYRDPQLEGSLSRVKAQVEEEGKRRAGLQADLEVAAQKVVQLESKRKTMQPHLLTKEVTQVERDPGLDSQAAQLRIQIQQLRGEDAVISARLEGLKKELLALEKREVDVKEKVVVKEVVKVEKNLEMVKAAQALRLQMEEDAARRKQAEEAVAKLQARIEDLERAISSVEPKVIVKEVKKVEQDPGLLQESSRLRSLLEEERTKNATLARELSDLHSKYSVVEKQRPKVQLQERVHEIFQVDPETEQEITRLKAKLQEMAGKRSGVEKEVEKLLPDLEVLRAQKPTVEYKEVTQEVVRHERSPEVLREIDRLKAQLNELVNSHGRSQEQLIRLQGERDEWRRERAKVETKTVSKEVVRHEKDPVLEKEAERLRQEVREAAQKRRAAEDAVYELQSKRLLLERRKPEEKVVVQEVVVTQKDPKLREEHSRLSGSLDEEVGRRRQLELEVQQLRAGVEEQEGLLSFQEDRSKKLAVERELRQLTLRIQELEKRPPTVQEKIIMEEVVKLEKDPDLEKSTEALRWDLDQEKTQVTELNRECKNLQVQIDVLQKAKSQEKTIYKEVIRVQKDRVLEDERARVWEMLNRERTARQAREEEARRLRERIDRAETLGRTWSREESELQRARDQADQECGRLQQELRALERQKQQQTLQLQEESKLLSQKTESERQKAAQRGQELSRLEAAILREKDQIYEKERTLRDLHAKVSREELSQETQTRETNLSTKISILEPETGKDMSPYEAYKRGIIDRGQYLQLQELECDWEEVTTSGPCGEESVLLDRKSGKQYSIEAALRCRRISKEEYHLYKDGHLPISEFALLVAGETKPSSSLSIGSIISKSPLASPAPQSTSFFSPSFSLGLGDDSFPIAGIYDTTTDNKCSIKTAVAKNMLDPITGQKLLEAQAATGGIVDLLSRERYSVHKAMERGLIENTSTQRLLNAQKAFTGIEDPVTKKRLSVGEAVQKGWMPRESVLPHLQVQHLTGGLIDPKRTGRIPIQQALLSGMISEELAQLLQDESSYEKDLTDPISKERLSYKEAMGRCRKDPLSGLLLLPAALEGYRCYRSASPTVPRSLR
Chain of Desmoplakin, P15924 (P15924 whole entry): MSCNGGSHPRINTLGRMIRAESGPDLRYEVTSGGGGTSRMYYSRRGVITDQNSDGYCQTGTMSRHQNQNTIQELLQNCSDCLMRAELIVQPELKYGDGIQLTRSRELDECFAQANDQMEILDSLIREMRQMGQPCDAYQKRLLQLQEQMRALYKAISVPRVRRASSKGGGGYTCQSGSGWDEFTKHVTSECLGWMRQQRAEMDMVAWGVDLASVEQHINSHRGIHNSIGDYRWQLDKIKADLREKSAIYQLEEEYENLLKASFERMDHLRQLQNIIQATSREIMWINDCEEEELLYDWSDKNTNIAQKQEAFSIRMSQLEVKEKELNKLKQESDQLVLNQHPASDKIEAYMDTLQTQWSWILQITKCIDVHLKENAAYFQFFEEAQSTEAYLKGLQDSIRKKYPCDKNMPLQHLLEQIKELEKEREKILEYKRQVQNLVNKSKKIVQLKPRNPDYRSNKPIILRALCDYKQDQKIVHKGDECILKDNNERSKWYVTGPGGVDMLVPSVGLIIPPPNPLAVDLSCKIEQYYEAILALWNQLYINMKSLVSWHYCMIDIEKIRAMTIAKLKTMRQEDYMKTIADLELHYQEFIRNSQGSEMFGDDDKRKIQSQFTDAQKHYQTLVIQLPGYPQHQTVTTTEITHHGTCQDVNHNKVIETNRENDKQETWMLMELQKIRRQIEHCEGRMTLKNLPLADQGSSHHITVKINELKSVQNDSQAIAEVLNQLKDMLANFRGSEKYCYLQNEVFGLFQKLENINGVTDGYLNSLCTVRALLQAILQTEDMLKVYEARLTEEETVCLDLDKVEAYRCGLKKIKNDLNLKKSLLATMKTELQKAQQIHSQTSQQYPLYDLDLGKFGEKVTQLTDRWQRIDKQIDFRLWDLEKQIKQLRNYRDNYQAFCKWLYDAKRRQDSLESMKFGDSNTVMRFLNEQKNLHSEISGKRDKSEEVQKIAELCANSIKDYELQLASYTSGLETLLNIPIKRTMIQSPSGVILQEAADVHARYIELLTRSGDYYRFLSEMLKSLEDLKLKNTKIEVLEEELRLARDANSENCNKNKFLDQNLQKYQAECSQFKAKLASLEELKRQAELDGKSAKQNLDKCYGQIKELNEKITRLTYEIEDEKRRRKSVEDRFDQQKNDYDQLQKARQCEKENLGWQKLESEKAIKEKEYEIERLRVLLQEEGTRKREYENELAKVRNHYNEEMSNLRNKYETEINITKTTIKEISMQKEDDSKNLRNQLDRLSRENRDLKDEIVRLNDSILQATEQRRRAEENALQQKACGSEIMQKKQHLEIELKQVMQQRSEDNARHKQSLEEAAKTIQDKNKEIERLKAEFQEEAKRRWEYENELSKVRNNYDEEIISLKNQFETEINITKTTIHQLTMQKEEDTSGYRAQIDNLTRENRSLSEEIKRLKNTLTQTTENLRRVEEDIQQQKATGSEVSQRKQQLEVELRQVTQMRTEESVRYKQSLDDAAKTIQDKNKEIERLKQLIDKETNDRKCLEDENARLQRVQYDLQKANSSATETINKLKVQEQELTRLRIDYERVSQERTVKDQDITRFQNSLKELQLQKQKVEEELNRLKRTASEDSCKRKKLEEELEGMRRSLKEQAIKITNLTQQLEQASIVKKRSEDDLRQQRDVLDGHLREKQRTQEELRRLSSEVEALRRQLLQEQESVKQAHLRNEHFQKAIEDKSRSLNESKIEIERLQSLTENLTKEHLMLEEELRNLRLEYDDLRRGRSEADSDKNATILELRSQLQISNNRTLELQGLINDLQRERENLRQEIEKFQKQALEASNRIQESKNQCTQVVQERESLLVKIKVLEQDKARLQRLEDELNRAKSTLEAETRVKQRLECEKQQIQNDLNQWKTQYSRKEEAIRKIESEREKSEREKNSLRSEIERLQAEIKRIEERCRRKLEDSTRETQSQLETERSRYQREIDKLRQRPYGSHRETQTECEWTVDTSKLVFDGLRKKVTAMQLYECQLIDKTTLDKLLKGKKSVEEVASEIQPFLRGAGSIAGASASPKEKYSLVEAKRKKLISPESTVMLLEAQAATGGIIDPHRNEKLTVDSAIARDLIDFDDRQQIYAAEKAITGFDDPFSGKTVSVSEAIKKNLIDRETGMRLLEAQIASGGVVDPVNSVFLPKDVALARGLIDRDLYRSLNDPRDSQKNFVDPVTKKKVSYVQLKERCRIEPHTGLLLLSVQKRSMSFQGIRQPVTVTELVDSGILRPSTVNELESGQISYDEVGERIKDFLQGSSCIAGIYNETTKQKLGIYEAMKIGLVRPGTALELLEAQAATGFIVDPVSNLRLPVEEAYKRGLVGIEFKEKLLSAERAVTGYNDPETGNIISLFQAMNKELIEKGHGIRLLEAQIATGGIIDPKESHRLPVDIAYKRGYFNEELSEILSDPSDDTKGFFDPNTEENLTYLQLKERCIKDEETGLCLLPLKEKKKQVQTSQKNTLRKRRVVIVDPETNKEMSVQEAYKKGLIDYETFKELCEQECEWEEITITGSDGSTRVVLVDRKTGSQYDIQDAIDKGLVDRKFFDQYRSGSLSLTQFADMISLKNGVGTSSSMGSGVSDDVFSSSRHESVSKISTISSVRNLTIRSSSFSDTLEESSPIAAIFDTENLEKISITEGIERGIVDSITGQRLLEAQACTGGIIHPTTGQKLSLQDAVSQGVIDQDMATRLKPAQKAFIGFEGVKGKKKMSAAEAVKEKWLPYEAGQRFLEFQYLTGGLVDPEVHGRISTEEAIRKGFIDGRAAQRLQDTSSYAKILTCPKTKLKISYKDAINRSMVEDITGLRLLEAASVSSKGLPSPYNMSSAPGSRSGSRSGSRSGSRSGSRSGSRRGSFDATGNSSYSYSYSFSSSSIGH

B1: recombinant Stratum Corneum Chymotryptic Enzyme (SCCE), active form obtained from recombinant ProSCCE with agarose-bound trypsin (protein)
chain: EEAQGDKIIDGAPCARGSHPWQVALLSGNQLHCGGVLVNERWVLTAAHCKMNEYTVHLGSDTLGDRRAQRIKASKSFRHPGYSTQTHVNDLMLVKLNSQARLSSMVKKVRLPSRCEPPGTTCTVSGWGTTTSPDVTFPSDLMCVDVKLISPQDCTKVYKDLLENSMLCAGIPDSKKNACNGDSGGPLVCRGTLQGLVSWGTFPCGQPNDPGVYTQVCKFTKWINDTMKKHR
On to B1, for which the “proteolysis (immunoblot of human epidermis extract incubated with active SCCE)” value in series [1] is given as “Desmoglein is found to be proteolysed by SCCE”; in series [2], “Envoplakin is found to be proteolysed by SCCE”; in series [3], “Plakoglobin is found to be proteolysed by recombinant SCCE”; in series [4] it was “Desmoplakin is found to be proteolysed by SCCE”; in series [5] it was “Corneodesmosin is found to be proteolysed by recombinant SCCE”; in series [6], “Desmocollin is found to be proteolysed by SCCE”.
